Source: patent publication US12358999B2, “Protein recognizing drug moiety of antibody-drug conjugate” (DAIICHI SANKYO COMPANY, LIMITED, priority 2018, dated 2025)

Experiments:
[1] = system: mouse antibody 1A3; experiment: Competitive inhibition with HER2-ADC (I), chemical structure recognized by mouse antibody 1A3 (Gyrolab); assay type: binding; conditions: compound 1 and 100 μg/mL dilution solutions; response at HER2-ADC (I) 250 ng/mL
From the text: The chemical structure to be recognized by mouse antibody 1A3 was checked by competitive inhibition with HER2-ADC (I) using Gyrolab xP workstation (GYROS PROTEIN Technologies). As the compound for use in competitive inhibition, compound (1), compound (2), compound (7), compound (8), compound (9), compound (10), compound (11), Topotecan and Rubitecan were selected.
As the capture reagent, mouse antibody 1A3 labeled with biotin by a labeling kit (ChromaLink Biotin Protein LABELING Kit, Solulink) was used. The concentration thereof was controlled to be 700 nM with 0.1% PS20-containing PBS. The compounds for use in competitive inhibition, compound (1), compound (2), compound (7), compound (8), compound (9), compound (10), compound (11), Topotecan and Rubitecan were separately dissolved in DMSO. The solutions each was diluted with 10% or 20% DMSO in Rexxip HN (GYROS PROTEIN Technologies) to prepare 0, 1 and 100 μg/mL dilution solutions. To each of them, the 700 nM mouse antibody 1A3 solution was added in an equal amount. The mixture was stirred and allowed to react at room temperature in a dark place for one hour or more. The concentration of HER2-ADC (I) was controlled with Rexxip HN to be 0, 0.244, 0.977, 3.91, 15.6, 62.5, 250 and 1000 ng/mL. As the detection reagent, Mouse Anti-(Anti-HER2 Ab) idiotype Ab (13C1) (IBL) was labeled by DyLight650 (registered trademark) labeling kit and put in use. The concentration thereof was controlled with Rexxip F (GYROS PROTEIN Technologies) to be 10 nM. The above solution was set at Gyrolab xP workstation and measurement was carried out by use of Gyrolab Bioaffy 200 at 200-3W-002-A (PMT5). The regression analysis was carried out by use of Gyrolab Evaluator 3.4.0.24 in 4-parametric logistic model (weight: Response). The calibration curve of HER2-ADC (I) was prepared per concentration of the competitive inhibition compound. The inhibition rate (%) was calculated by comparing the response at an HER2-ADC (I) concentration of 250 ng/mL to that of the case where no compound was added (concentration 0 ng/mL).

[2] = system: sera of BALB/c mice and BDF1 mice after immunization; experiment: Inhibition ELISA of immunized mouse sera on immobilized antigen protein (2); assay type: binding; conditions: sera diluted 50000 fold; compound 12.5-100 μg/mL
Experimental: To the sera of BALB/c mice (4 individuals) and BDF1 mice (4 individuals) after immunization through four administrations, compound (6), compound (7) and compound (1) as positive controls and compound (8) as a negative control were added and the unabsorption rate to antigen protein (2) was calculated. The mouse sera diluted to 50000 fold and compound (6), compound (8), compound (7) and compound (1), which were prepared to have a concentration of 12.5, 25, 50 and 100 μg/mL, were mixed and allowed to react at 4° C. overnight, and then, added to ELISA immunoplates having the antigen protein (2) immobilized thereon and allowed to react at 37° C. for 30 minutes. After washing, anti-mouse IgG-HRP was allowed to react at 37° C. for 30 minutes. After washing, an OPD solution was added. After termination of color development, absorbance at 490 nm was measured. The unabsorption rate was calculated in accordance with the following expression: Unabsorption rate(%)=(a/b)×100
a: Absorbance of positive control or negative control at an addition concentration of 12.5 μg/mL
b: Absorbance of a sample not containing positive control or a sample not containing a negative control

[3] = target: T1, topoisomerase I (Homo sapiens, UniProt P11387); conditions: cited from earlier work
T1 sequence (P11387 1-765): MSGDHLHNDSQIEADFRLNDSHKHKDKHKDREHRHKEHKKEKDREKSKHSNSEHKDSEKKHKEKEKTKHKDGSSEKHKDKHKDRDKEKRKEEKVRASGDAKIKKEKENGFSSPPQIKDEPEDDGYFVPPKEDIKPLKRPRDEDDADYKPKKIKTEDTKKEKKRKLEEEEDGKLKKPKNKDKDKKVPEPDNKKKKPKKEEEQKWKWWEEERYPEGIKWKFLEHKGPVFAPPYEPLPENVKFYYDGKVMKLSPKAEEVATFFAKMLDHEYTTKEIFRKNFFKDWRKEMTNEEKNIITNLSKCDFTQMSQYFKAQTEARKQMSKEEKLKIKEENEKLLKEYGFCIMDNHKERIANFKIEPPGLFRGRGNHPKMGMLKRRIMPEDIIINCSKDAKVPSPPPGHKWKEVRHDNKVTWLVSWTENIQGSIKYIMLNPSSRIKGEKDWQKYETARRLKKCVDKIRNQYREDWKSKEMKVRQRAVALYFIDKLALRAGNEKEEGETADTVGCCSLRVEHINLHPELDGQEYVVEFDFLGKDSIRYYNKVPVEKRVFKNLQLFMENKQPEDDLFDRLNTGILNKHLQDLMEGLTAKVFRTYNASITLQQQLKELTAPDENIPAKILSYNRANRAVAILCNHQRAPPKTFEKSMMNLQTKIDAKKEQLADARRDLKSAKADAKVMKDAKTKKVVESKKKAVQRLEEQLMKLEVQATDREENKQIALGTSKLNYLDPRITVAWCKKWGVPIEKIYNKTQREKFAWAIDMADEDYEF

[4] = system: TROP2-ADC (I); experiment: Immunostaining with rabbit chimeric antibody 1A3, FaDu subcutaneous tumor after TROP2-ADC (I); assay type: binding, nude mouse
Experimental: To an immunodeficient mouse (nude mouse), human head and neck cancer cell line FaDu was subcutaneously transplanted. After TROP2-ADC (I) was administered, the tumor tissue was taken to prepare paraffin-embedded specimens. Then, stainability of rabbit chimeric antibody 1A3 was examined. The tumor tissue was taken from a nude mouse to which an anti-TROP2 antibody (an antibody comprising a heavy chain consisting of amino acid sequence of amino acid residues 20 to 470 of SEQ ID NO: 25 and a light chain consisting of amino acid sequence of amino acid residues 21 to 234 of SEQ ID NO: 26, hereinafter referred to as “Anti-TROP2 Ab”) and used as a negative control. Deparaffinization and antigen activation were carried out using Autostainer Link pretreatment system (PT Link, manufactured by DAKO) and an antigen retrieval solution (Target Retrieval Solution Low pH, manufactured by DAKO) at 97° C. for 40 minutes. The following staining operation was carried out using an automatic staining device (Dako Autostainer Link 48: manufactured by DAKO) at room temperature. After washing once with EnVision FLEX WASH BUFFER (manufactured by DAKO), REAL Peroxidase-Blocking Solution (manufactured by DAKO) was added; incubation was carried out for 5 minutes; and washing was carried out once with EnVision FLEX WASH BUFFER. […]

[5] = system: GPR20-ADC (I); experiment: Immunostaining with rabbit chimeric antibody 1A3, GIST-T1/GPR20 subcutaneous tumor after GPR20-ADC (I); assay type: binding, nude mouse

Row | Molecule | competitive inhibition of recognition of mouse antibody 1A3 to HER2-ADC (I) (inhibition rate, FIG. 41) [1] | inhibition effect on binding of mouse sera to antigen protein (2) (unabsorption rate) [2] | topoisomerase I inhibitory activity [3] | stainability to subcutaneous tumor tissue ([4]; animal administered with TROP2-ADC (I), antibody 0.1 μg/mL) | stainability to subcutaneous tumor tissue ([4]; animal administered with anti-TROP2 Ab (negative control tissue)) | stainability to subcutaneous tumor tissue ([5]; animal administered with GPR20-ADC (I)) | stainability to subcutaneous tumor tissue ([5]; animal not administered with GPR20-ADC (I))
1 | CC[C@@]1(O)C(=O)OCc2c1cc1n(c2=O)Cc2c-1nc1cc(F)c(C)c3c1c2[C@@H](N)CC3 [compound (1), (1S,9S)-1-amino-9-ethyl-5-fluoro-1,2,3,9,12,15-hexahydro-9-hydroxy-4-methyl-10H,13H-benzo[de]pyrano[3′,4′:6,7]indolizino[1,2-b]quinoline-10,13-dione, reference compound] | strong competitive inhibition | high inhibition effect | topoisomerase I inhibitory activity |  |  |  | 
2 | rabbit chimeric antibody 1A3: rabbit chimeric antibody derived from mouse antibody 1A3; heavy chain SEQ ID NO: 19, light chain SEQ ID NO: 20 (antibody) heavy: MKHLWFFLLLVAAPRWVLSEVKLVESGGGLVQPGGSRKLSCAASGFTFSDYGMVWIRQAPGRGLEWVAYISSGSSAIYYADTVKGRFTISRDNPKNTLFLQMNSLRSEDSAMYFCARPPRYDVYSAWFAYWGQGTLVTVSAGQPKAPSVFPLAPCCGDTPSSTVTLGCLVKGYLPEPVTVTWNSGTLTNGVRTFPSVRQSSGLYSLSSVVSVTSSSQPVTCNVAHPATNTKVDKTVAPSTCSKPTCPPPELLGGPSVFIFPPKPKDTLMISRTPEVTCVVVDVSQDDPEVQFTWYINNEQVRTARPPLREQQFNSTIRVVSTLPITHQDWLRGKEFKCKVHNKALPAPIEKTISKARGQPLEPKVYTMGPPREELSSRSVSLTCMINGFYPSDISVEWEKNGKAEDNYKTTPAVLDSDGSYFLYNKLSVPTSEWQRGDVFTCSVMHEALHNHYTQKSISRSPGK light: MVLQTQVFISLLLWISGAYGDIVMTQSHKFMSTSVGDRVSITCKASQDVGSAVVWYQQKPGHSPDLLIYWASTRHTGVPDRFTGSGSGTDFTLTIGNVQSEDLADYFCQQYSSYPVTFGGGTKLEIKRDPVAPSVLLFPPSKEELTTGTATIVCVANKFYPSDITVTWKVDGTTQQSGIENSKTPQSPEDNTYSLSSTLSLTSAQYNSHSVYTCEVVQGSASPIVQSFNRGDC |  |  |  | satisfactory stainability | did not show stainability | satisfactory stainability | did not show stainability
